Values quoted from earlier work in paper PMC7876049.

Biological target: CYK4 (Homo sapiens) (UniProt Q9H0H5)
Chain of UniProt Q9H0H5 (Q9H0H5 whole entry): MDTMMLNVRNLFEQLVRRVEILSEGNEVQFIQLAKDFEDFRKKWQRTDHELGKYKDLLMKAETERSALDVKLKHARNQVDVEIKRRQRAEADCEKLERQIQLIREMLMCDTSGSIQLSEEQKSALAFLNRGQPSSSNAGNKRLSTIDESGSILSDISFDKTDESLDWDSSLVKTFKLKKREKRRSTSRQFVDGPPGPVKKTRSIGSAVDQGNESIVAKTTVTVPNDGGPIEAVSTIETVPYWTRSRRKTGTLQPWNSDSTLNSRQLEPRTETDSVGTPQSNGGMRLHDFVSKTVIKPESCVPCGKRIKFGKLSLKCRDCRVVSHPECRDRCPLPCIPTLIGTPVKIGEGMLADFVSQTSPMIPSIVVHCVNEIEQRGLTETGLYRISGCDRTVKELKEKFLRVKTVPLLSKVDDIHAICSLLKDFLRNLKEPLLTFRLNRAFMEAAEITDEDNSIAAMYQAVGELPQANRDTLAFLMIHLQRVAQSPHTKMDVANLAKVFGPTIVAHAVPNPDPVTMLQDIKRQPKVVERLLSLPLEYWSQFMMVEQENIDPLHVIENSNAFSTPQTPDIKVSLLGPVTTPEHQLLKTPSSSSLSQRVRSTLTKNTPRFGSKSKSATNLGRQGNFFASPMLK

Kd: 7 nM
Substance: MKLP1 (from UniProt Q02241)
